# Data published in article PMC9482650, “Quantitative fragmentomics allow affinity mapping of interactomes” (Nature Communications, 2022).
# T1: TJP3_1, O95049
# T1 sequence (O95049 6-103, limits assumed, looked up): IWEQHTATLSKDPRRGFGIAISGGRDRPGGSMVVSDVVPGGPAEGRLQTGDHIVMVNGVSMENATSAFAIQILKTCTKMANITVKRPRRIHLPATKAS
# T2: USH1C_1, Q9Y6N9
# T2 sequence (Q9Y6N9 82-179, limits assumed, looked up): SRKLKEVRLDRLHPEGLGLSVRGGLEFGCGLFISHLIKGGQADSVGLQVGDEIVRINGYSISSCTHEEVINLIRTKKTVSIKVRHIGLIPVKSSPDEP
# T3: RGS12, O14924
# T3 sequence (O14924 17-108, limits assumed, looked up): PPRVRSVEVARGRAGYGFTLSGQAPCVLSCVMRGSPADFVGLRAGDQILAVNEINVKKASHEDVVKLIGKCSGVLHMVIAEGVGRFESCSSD
# T4: TJP3_2, O95049
# T4 sequence (O95049 190-282, limits assumed, looked up): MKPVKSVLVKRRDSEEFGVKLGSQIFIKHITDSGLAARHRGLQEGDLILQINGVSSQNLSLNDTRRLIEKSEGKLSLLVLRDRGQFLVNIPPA
# T5: PDZD2_5, O15018
# T5 sequence (O15018 2617-2716, limits assumed, looked up): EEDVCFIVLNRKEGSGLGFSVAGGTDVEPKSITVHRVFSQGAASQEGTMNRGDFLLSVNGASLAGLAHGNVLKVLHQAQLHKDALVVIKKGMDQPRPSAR
# T6: PDZD4, Q76G19
# T6 sequence (Q76G19 125-224, limits assumed, looked up): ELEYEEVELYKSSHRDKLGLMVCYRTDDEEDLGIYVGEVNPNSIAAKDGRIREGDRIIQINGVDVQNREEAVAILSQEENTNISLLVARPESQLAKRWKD
# T7: PDZRN3_2, Q9UPQ7
# T7 sequence (Q9UPQ7 414-513, limits assumed, looked up): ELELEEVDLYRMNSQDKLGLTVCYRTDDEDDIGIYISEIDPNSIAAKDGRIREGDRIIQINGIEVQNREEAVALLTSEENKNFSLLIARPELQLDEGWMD
# T8: PTPN13_4, Q12923
# T8 sequence (Q12923 1783-1878, limits assumed, looked up): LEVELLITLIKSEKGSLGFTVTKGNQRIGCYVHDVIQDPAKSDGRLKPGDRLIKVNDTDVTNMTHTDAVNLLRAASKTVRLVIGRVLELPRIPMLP
# T9: PDZD2_1, O15018
# T9 sequence (O15018 80-192, limits assumed, looked up): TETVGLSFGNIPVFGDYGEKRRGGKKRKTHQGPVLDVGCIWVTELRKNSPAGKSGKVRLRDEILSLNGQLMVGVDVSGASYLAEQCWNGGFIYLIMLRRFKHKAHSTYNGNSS
# T10: APBA3_2, O96018
# T10 sequence (O96018 480-570, limits assumed, looked up): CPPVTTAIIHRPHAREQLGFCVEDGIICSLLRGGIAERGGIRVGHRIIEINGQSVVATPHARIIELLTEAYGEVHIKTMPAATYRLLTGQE
# T11: PDZD7_1, Q9H5P4
# T11 sequence (Q9H5P4 81-178, limits assumed, looked up): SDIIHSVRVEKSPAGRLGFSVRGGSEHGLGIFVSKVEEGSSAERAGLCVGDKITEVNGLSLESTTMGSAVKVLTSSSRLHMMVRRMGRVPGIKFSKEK
# T12: SIPA1L3, O60292
# T12 sequence (O60292 961-1052, limits assumed, looked up): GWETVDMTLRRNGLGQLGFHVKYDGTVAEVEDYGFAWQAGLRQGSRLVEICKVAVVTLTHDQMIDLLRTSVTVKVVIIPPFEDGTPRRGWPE
# T13: SHROOM3, Q8TF72
# T13 sequence (Q8TF72 20-120, limits assumed, looked up): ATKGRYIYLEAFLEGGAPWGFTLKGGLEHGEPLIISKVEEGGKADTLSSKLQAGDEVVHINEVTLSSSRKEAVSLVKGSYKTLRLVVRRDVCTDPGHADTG
# T14: USH1C_2, Q9Y6N9
# T14 sequence (Q9Y6N9 206-303, limits assumed, looked up): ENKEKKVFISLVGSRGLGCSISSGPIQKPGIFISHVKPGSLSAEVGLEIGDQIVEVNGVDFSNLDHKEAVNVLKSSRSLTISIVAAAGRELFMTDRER
# Molecular target: GIPC3, Q8TF64
# Experiment: holdup assay
# Parameters: key: below the threshold = too weak to quantify, mostly under pKd 3.1 to 4
# Settings: plain residues with an end cap or a label only (N-terminal biotin on a linker: ttds)
# Chain of GIPC3, Q8TF64 (Q8TF64 107-202): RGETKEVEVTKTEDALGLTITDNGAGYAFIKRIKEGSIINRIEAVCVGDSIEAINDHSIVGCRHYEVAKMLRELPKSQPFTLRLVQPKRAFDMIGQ
row,Binder,pKd
1,"SRPQRTQTQV [HPV67-E6, A4U7F2]",below the threshold
2,"SSRTRRETQL [HPV16-E6, P03126]",below the threshold

# Molecular target: PDLIM4, P50479
# Experiment: holdup assay
# Parameters: key: below the threshold = too weak to quantify, mostly under pKd 3.1 to 4
# Settings: plain residues with an end cap or a label only (N-terminal biotin on a linker: ttds)
# Chain of PDLIM4, P50479 (P50479 1-83): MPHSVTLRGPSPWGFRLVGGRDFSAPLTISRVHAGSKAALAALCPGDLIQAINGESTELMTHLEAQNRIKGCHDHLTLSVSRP
row,Binder,pKd
1,"SRPQRTQTQV [HPV67-E6, A4U7F2]",below the threshold
2,"SSRTRRETQL [HPV16-E6, P03126]",below the threshold

# Molecular target: T1, TJP3_1, O95049
# Experiment: holdup assay
# Parameters: key: below the threshold = too weak to quantify, mostly under pKd 3.1 to 4
# Settings: plain residues with an end cap or a label only (N-terminal biotin on a linker: ttds)
row,Binder,pKd
1,"SRPQRTQTQV [HPV67-E6, A4U7F2]",below the threshold
2,"SSRTRRETQL [HPV16-E6, P03126]",below the threshold

# Molecular target: T2, USH1C_1, Q9Y6N9
# Experiment: holdup assay
# Parameters: key: below the threshold = too weak to quantify, mostly under pKd 3.1 to 4
# Settings: plain residues with an end cap or a label only (N-terminal biotin on a linker: ttds)
row,Binder,pKd
1,"SRPQRTQTQV [HPV67-E6, A4U7F2]",below the threshold
2,"SSRTRRETQL [HPV16-E6, P03126]",below the threshold

# Molecular target: T3, RGS12, O14924
# Experiment: holdup assay
# Parameters: key: below the threshold = too weak to quantify, mostly under pKd 3.1 to 4
# Settings: plain residues with an end cap or a label only (N-terminal biotin on a linker: ttds)
row,Binder,pKd
1,"SRPQRTQTQV [HPV67-E6, A4U7F2]",below the threshold
2,"SSRTRRETQL [HPV16-E6, P03126]",4.37

# Molecular target: T4, TJP3_2, O95049
# Experiment: holdup assay
# Parameters: key: below the threshold = too weak to quantify, mostly under pKd 3.1 to 4
# Settings: plain residues with an end cap or a label only (N-terminal biotin on a linker: ttds)
row,Binder,pKd
1,"SRPQRTQTQV [HPV67-E6, A4U7F2]",below the threshold
2,"SSRTRRETQL [HPV16-E6, P03126]",below the threshold

# Molecular target: GRIP2_2, Q9C0E4
# Experiment: holdup assay
# Parameters: key: below the threshold = too weak to quantify, mostly under pKd 3.1 to 4
# Settings: plain residues with an end cap or a label only (N-terminal biotin on a linker: ttds)
# Chain of GRIP2_2, Q9C0E4 (Q9C0E4 137-245): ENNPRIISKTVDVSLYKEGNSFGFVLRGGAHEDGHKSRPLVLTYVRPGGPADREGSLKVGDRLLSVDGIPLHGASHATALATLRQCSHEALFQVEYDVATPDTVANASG
row,Binder,pKd
1,"SSRTRRETQL [HPV16-E6, P03126]",below the threshold

# Molecular target: NHERF2_1, Q15599
# Experiment: holdup assay
# Parameters: key: below the threshold = too weak to quantify, mostly under pKd 3.1 to 4
# Settings: plain residues with an end cap or a label only (N-terminal biotin on a linker: ttds)
# Chain of NHERF2_1, Q15599 (Q15599 9-91): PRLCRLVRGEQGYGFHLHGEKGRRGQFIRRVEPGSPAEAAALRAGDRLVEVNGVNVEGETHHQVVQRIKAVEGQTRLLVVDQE
row,Binder,pKd
1,"SRPQRTQTQV [HPV67-E6, A4U7F2]",below the threshold
2,"SSRTRRETQL [HPV16-E6, P03126]",below the threshold

# Molecular target: T5, PDZD2_5, O15018
# Experiment: holdup assay
# Parameters: key: below the threshold = too weak to quantify, mostly under pKd 3.1 to 4
# Settings: plain residues with an end cap or a label only (N-terminal biotin on a linker: ttds)
row,Binder,pKd
1,"SRPQRTQTQV [HPV67-E6, A4U7F2]",below the threshold
2,"SSRTRRETQL [HPV16-E6, P03126]",below the threshold

# Molecular target: T6, PDZD4, Q76G19
# Experiment: holdup assay
# Parameters: key: below the threshold = too weak to quantify, mostly under pKd 3.1 to 4
# Settings: plain residues with an end cap or a label only (N-terminal biotin on a linker: ttds)
row,Binder,pKd
1,"SRPQRTQTQV [HPV67-E6, A4U7F2]",below the threshold
2,"SSRTRRETQL [HPV16-E6, P03126]",below the threshold

# Molecular target: T7, PDZRN3_2, Q9UPQ7
# Experiment: holdup assay
# Parameters: key: below the threshold = too weak to quantify, mostly under pKd 3.1 to 4
# Settings: plain residues with an end cap or a label only (N-terminal biotin on a linker: ttds)
row,Binder,pKd
1,"SRPQRTQTQV [HPV67-E6, A4U7F2]",below the threshold
2,"SSRTRRETQL [HPV16-E6, P03126]",below the threshold

# Molecular target: PARD3B_2, Q8TEW8
# Experiment: holdup assay
# Parameters: key: below the threshold = too weak to quantify, mostly under pKd 3.1 to 4
# Settings: plain residues with an end cap or a label only (N-terminal biotin on a linker: ttds)
# Chain of PARD3B_2, Q8TEW8 (Q8TEW8 376-471): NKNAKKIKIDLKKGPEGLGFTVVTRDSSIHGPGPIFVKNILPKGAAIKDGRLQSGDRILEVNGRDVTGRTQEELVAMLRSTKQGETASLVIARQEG
row,Binder,pKd
1,"SSRTRRETQL [HPV16-E6, P03126]",below the threshold

# Molecular target: PTPN13_2, Q12923
# Experiment: holdup assay
# Parameters: key: below the threshold = too weak to quantify, mostly under pKd 3.1 to 4
# Settings: plain residues with an end cap or a label only (N-terminal biotin on a linker: ttds)
# Chain of PTPN13_2, Q12923 (Q12923 1363-1462): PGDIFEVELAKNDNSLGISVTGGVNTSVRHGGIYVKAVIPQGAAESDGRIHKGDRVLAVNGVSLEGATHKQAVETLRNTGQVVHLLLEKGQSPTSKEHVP
row,Binder,pKd
1,"SRPQRTQTQV [HPV67-E6, A4U7F2]",below the threshold
2,"SSRTRRETQL [HPV16-E6, P03126]",below the threshold

# Molecular target: T8, PTPN13_4, Q12923
# Experiment: holdup assay
# Parameters: key: below the threshold = too weak to quantify, mostly under pKd 3.1 to 4
# Settings: plain residues with an end cap or a label only (N-terminal biotin on a linker: ttds)
row,Binder,pKd
1,"SRPQRTQTQV [HPV67-E6, A4U7F2]",below the threshold
2,"SSRTRRETQL [HPV16-E6, P03126]",below the threshold

# Molecular target: RGS3, P49796-9
# Experiment: holdup assay
# Parameters: key: below the threshold = too weak to quantify, mostly under pKd 3.1 to 4
# Settings: plain residues with an end cap or a label only (N-terminal biotin on a linker: ttds)
# Chain of RGS3, P49796-9 (P49796 other isoform, or with tags, fused parts or gaps): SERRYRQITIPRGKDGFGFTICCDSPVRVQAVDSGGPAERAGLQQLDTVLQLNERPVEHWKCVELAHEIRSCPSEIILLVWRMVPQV
row,Binder,pKd
1,"SRPQRTQTQV [HPV67-E6, A4U7F2]",below the threshold
2,"SSRTRRETQL [HPV16-E6, P03126]",below the threshold

# Molecular target: T9, PDZD2_1, O15018
# Experiment: holdup assay
# Parameters: key: below the threshold = too weak to quantify, mostly under pKd 3.1 to 4
# Settings: plain residues with an end cap or a label only (N-terminal biotin on a linker: ttds)
row,Binder,pKd
1,"SRPQRTQTQV [HPV67-E6, A4U7F2]",below the threshold
2,"SSRTRRETQL [HPV16-E6, P03126]",below the threshold

# Molecular target: MAGI1_5, Q96QZ7
# Experiment: holdup assay
# Parameters: key: below the threshold = too weak to quantify, mostly under pKd 3.1 to 4
# Settings: plain residues with an end cap or a label only (N-terminal biotin on a linker: ttds)
# Chain of MAGI1_5, Q96QZ7 (Q96QZ7 986-1098): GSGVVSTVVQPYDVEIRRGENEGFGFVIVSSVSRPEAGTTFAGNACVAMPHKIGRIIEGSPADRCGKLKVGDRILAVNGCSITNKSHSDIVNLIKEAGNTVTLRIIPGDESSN
row,Binder,pKd
1,"SRPQRTQTQV [HPV67-E6, A4U7F2]",4.35
2,"SSRTRRETQL [HPV16-E6, P03126]",4.69

# Molecular target: T10, APBA3_2, O96018
# Experiment: holdup assay
# Parameters: key: below the threshold = too weak to quantify, mostly under pKd 3.1 to 4
# Settings: plain residues with an end cap or a label only (N-terminal biotin on a linker: ttds)
row,Binder,pKd
1,"SRPQRTQTQV [HPV67-E6, A4U7F2]",below the threshold
2,"SSRTRRETQL [HPV16-E6, P03126]",below the threshold

# Molecular target: PARD3_1, Q8TEW0
# Experiment: holdup assay
# Parameters: key: below the threshold = too weak to quantify, mostly under pKd 3.1 to 4
# Settings: plain residues with an end cap or a label only (N-terminal biotin on a linker: ttds)
# Chain of PARD3_1, Q8TEW0 (Q8TEW0 264-372): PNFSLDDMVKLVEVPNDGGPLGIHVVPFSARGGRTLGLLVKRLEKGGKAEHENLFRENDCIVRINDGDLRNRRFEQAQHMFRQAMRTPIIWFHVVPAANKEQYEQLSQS
row,Binder,pKd
1,"SRPQRTQTQV [HPV67-E6, A4U7F2]",below the threshold
2,"SSRTRRETQL [HPV16-E6, P03126]",below the threshold

# Molecular target: T11, PDZD7_1, Q9H5P4
# Experiment: holdup assay
# Parameters: key: below the threshold = too weak to quantify, mostly under pKd 3.1 to 4
# Settings: plain residues with an end cap or a label only (N-terminal biotin on a linker: ttds)
row,Binder,pKd
1,"SRPQRTQTQV [HPV67-E6, A4U7F2]",below the threshold
2,"SSRTRRETQL [HPV16-E6, P03126]",below the threshold

# Molecular target: T12, SIPA1L3, O60292
# Experiment: holdup assay
# Parameters: key: below the threshold = too weak to quantify, mostly under pKd 3.1 to 4
# Settings: plain residues with an end cap or a label only (N-terminal biotin on a linker: ttds)
row,Binder,pKd
1,"SRPQRTQTQV [HPV67-E6, A4U7F2]",below the threshold
2,"SSRTRRETQL [HPV16-E6, P03126]",below the threshold

# Molecular target: T13, SHROOM3, Q8TF72
# Experiment: holdup assay
# Parameters: key: below the threshold = too weak to quantify, mostly under pKd 3.1 to 4
# Settings: plain residues with an end cap or a label only (N-terminal biotin on a linker: ttds)
row,Binder,pKd
1,"SRPQRTQTQV [HPV67-E6, A4U7F2]",below the threshold
2,"SSRTRRETQL [HPV16-E6, P03126]",below the threshold

# Molecular target: T14, USH1C_2, Q9Y6N9
# Experiment: holdup assay
# Parameters: key: below the threshold = too weak to quantify, mostly under pKd 3.1 to 4
# Settings: plain residues with an end cap or a label only (N-terminal biotin on a linker: ttds)
row,Binder,pKd
1,"SRPQRTQTQV [HPV67-E6, A4U7F2]",below the threshold
2,"SSRTRRETQL [HPV16-E6, P03126]",3.92
